The source of these data is PMC9942873 (Immunity, 2023).

Changes are numbered by the printed parent chain.

B1: RUPA-147 (antibody, V domains shown)
VH: QVQLVQSGAEVKKPGASVKVSCTASGYNFLTHDISWVRQATGQGLEWMGWMNPNTGKKGYVQKFQGRVTMDRDMSKSTAYMELRSLTSEDTAVYYCVRGVGSYYGSGGWFDPWGQGTLVTVSS
VL: QSVLTQPPSASETPGQKVTISCSGSSSNIGSDTVSWYVQLPGTAPKLLIYNDNQRPSRVPDRFSGSKSGTSASLAISGLQSEDEADYYCATWDASLKRRVFGGGTTLTVL
notes: human IgG1; source: recombinant human IgG1, 293T (Protein A purified) or GenScript
B2: RUPA-148 (antibody, V domains shown)
VH: B1 VH
VL: B1 VL with S57P, R58G
notes: as for B1
B3: RUPA-150 (antibody, V domains shown)
VH: QVQLQQWGAGLLKPSETLSLTCLVNGGSFSDYYWSWIRQPPGRGLEWIGDVNHSGTTNHRPSLQSRVTLSLDMSKNQFSLKLTSVTAADTAVYFCARRSSGYYRGSRYTGWFDPWGQGTLVTVSS
VL: EIVMTQSPATLSVSPGERATLSCRASQSVSSNLAWYQQKPGQTPRLLIYGSSTRATGIPARFSGSGSGTEFALTISSLQSEDFAVYYCQQYNNWPPPWTFGQGTKVEIK
notes: as for B1
B4: RUPA-153 (antibody, V domains shown)
VH: QVQLQESGPGLVKPSQTLSLTCTVSGSSVSSGGYYWSWIRQHPGKGLEWIGYLYYSGNTGNTFYNPSLKSRVTISADPSKNQFSLELSSVTAADTAMYYCARAVGVGRYFGYFPSWGLGTLVTVSS
VL: B3 VL
notes: as for B1
B5: RUPA-143 (antibody, V domains shown)
VH: QVQLVQSGAEVKKPGASVKVSCKASASTIANFAVSWVRQAPGQGLEWMGWISVYNVKTGDVKYAPKFQGRVTLTIDTATSTASMELRSLRFDDTAVYYCARANWYDNVWQEYFYGMDVWGQGTTVTVSS
VL: DIQMTQSPLTLSASVGDRVTITCRASQSVSRFLAWYQQKPGKAPKLLMYKVSNLESGVPSRFSGSGFGTQFTLTISSLQPDDFATYYCQHYDAYPWTFGQGTKVEIK
notes: as for B1
B6: RUPA-149 (antibody, V domains shown)
VH: EVQLVESGGGVVQPGGSLRLSCAASGFTFSNFGMHWVRQAPGKGLEWVAKISYDGSNKYYADFVKGRFTISRDKATNTVHLQMNSLSAEDRGIYYCAKDKVFGVVANHHQYGLDVWGQGTTVTVSS
VL: DIQMTQSPASLSASVGDRVTITCRASQNIHLYLHWYQQKPGKAPELLIFTTNTLHRGVPSRFRGSGSGTEFALTISDLQPEDFATYYCQQSYTTPHFTFGQGTKLEIK
notes: as for B1
B7: RUPA-161 (antibody, V domains shown)
VH: QVQLVQSGAEVKKPGASVKVSCKASGYTFLYHDIIWMRQATGQGPEWMGWINPNTGNTGLAQKFQGRVSLTRNMSSGTAYMELRSLRSEDRAIYYCARGVGTYHGSGGWFDPWGQGTLVTVSS
VL: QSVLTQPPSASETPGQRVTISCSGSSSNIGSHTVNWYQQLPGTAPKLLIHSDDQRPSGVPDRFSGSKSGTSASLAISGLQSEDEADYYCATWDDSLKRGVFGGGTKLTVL
notes: as for B1
B8: RUPA-151 (antibody, V domains shown)
VH: QVQLVQSGAEVKKTGASVKVSCKASGYTFTSHDIIWVRQAAGQGLEWMGWLNPNTGKKGYVEKFQGRVMLTRNMSTGTAYMELSSLRSDDSAIYYCARGVGTYHGSEGWLDPWGQGTLVTVSS
VL: QSVLTQPPSASETPGQGVTISCSGSSSNVGSNAVNWYQQLPGRAPKLLMYNTNQRPSGVPDRFSGSKSGTSASLAISGLRSADEADYYCAAWDDSLKRGVFGGGTKLTVL
notes: as for B1
B9: RUPA-144 (antibody, V domains shown)
VH: B8 VH with L51M, E62Q, I93V, H104Y
VL: B8 VL with G17R, A33T, R43T, A82D, A91T
notes: as for B1
B10: RUPA-113 (antibody, V domains shown)
VH: QVQLVQSGAELKKPGASVKVSCKASGYTFTSHDITWVRQAPGQGLEWMGWMNPNTGDRGYARNFQGRLTLTRDMSISTAFMVLSSLRPEDTAVYYCTRGVGTYHGAGGWFDPWGQGTLVSVSS
VL: QSVLTQPPSASETPGQRVTISCSGSSSNIGSNIVSWYQQLPGTAPKLLIYNNNQRPSGVPDRFSGSQSGTSASLAISGLQSEDEADYYCATWDDSLERGVFGGGTKLTVL
notes: as for B1
B11: RUPA-65 (antibody, V domains shown)
VH: B7 VH with L60H, S69T, R91T, I93V
VL: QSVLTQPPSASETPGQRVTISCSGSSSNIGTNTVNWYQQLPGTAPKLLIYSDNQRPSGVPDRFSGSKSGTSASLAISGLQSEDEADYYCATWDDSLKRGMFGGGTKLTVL
notes: as for B1
B12: RUPA-68 (antibody, V domains shown)
VH: QVQLVQSGAELKKPGASVKVSCKASGYTFTSHDITWVRQAAGQGLEWMGWMNPNTGDKGYAQKFQGRVTMTRNMSTRTAYMEVNSLTSEDTAVYYCARGVGTYHGAGGWFDPWGQGTLVTVSS
VL: B10 VL with L4V, A10V, N51S, N52D, G65A, Q67K, E97K
notes: as for B1
B13: RUPA-63 (antibody, V domains shown)
VH: B8 VH with L51M, V61A, E62Q, K63R, V68I, M69T, S84G, H104Y
VL: B8 VL with G17R, A33T, R43T, A82E, K106R
notes: as for B1

T1 sequence (Q8I6T1 184-428): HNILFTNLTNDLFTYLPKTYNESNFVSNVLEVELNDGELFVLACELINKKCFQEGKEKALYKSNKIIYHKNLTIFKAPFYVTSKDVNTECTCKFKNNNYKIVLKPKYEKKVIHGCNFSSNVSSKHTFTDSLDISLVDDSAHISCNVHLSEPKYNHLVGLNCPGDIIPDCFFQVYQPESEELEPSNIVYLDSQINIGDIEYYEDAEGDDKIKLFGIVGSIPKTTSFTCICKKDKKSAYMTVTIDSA
T2 sequence (Q8I6T1 28-428): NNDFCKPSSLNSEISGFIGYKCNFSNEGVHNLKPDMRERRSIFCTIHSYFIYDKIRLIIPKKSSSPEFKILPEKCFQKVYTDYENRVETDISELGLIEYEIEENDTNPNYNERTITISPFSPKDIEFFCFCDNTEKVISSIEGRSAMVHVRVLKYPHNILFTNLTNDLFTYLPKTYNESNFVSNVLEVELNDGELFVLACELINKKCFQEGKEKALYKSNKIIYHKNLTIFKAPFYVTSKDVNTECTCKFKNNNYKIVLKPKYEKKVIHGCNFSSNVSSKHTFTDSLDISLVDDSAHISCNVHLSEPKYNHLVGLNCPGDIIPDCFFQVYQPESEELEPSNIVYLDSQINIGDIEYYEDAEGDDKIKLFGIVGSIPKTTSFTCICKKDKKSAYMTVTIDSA

One assay addresses T1, Pfs48/45 D2-3 (Plasmodium falciparum 3D7, UniProt Q8I6T1). The experiment in a line: ELISA. To be noted: both partners purified. (In an ELISA, binding on a coated surface is turned into a signal by an enzyme label.)
For B1, the binding result is “binds”.

With B2, the binding result is on record as “binds”.

For the molecule B3, the binding result is “binds”.

B4: the binding result was “binds”.

Consider B5, for which the binding result is reported as “binds”.

Regarding B6, the binding result was “binds”.

Turning to B7, the binding result was “binds”.

On to B8, for which the binding result was “binds”.

As to B9, the binding result is “binds”.

Regarding B10, the binding result was “binds”.

The next assay has as its target T2, recombinant full-length Pfs48/45 (Plasmodium falciparum 3D7, UniProt Q8I6T1). The experiment in a line: ELISA. Conditions: both partners purified.
As to B1, the binding result is recorded as “binds”.

As to B2, the binding result was “binds”.

Take B3: the binding result is listed as “binds”.

As to B4, the binding result is given as “binds”.

As to B5, the binding result is recorded as “binds”.

For B6, the binding result was “binds”.

B7: the binding result is “binds”.

Turning to B8, the binding result is “binds”.

On to B9, for which the binding result is on record as “binds”.

For the molecule B10, the binding result is reported as “binds”.

The target of the next assay is T3, Pfs48/45 D1-2 (Plasmodium falciparum 3D7, UniProt Q8I6T1). In words: ELISA. To be noted: both partners purified.
T3 sequence (Q8I6T1 28-289): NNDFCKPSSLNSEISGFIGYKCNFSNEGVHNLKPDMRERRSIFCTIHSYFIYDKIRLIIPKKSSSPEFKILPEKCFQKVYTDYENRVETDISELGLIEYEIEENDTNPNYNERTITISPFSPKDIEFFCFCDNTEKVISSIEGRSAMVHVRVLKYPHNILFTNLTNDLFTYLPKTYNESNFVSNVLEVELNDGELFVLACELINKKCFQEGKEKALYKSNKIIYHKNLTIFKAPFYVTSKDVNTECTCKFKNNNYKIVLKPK
As to B1, the binding result is “binds”.

As for B2, the binding result is “binds”.

Regarding B3, the binding result is “binds”.

In the case of B4, the binding result is recorded as “binds”.

For B5, the binding result is on record as “binds”.

As to B6, the binding result is reported as “binds”.

Consider B7, for which the binding result is on record as “binds”.

Regarding B8, the binding result is “binds”.

As to B9, the binding result is “binds”.

As to B10, the binding result is “binds”.

The next assay concerns the target T1, Pfs48/45 D2-3. The experiment in a line: ELISA. To be noted: both partners purified. The source holds these as a separate data set.
For B11, the binding result is reported as “binds”.

Take B12: the binding result was “binds”.

Turning to B13, the binding result is reported as “binds”.

For the next assay, the target named is T2, recombinant full-length Pfs48/45. In words: ELISA. Conditions: both partners purified. The source holds these as a separate data set.
As to B11, the binding result was “binds”.

Regarding B12, the binding result was “binds”.

Consider B13, for which the binding result is given as “binds”.

In another assay the target is T3, Pfs48/45 D1-2. The experiment in a line: ELISA. Conditions: both partners purified. The source holds these as a separate data set.
As to B11, the binding result is on record as “binds”.

In the case of B12, the binding result is given as “binds”.

Take B13: the binding result is “binds”.
